In patent US20130096276A1:

Biological target: human immunoglobulin G drug separated from human plasma (Gammagard, Baxter) (human)

Row | Ka [M⁻¹] | Substance
1 | 3e+08 | C-G29A/D36R.5d (designed binder)
2 | 6.5e+07 | C-G29A/K35R/D37E.5d (designed binder)
